Patent US20160115500A1 (University of California, published 2016)
Residue numbers refer to the chain shown, from its start. In names and notes the source's numbering stands. Each block holds one binder with its values, some of them ahead of it.

What was measured:
[1] = biological target: T1, GAL4 activation domain fusion (ACT) to HAB1 (UniProt Q9CAJ0 23-511, limits assumed); experiment: yeast two-hybrid, X-gal; lowest benzothiadiazole concentration giving signal
T1 construct: pACT-HAB1 fusion in yeast reporter strains; also called pACT-HAB1
T1 sequence (looked up): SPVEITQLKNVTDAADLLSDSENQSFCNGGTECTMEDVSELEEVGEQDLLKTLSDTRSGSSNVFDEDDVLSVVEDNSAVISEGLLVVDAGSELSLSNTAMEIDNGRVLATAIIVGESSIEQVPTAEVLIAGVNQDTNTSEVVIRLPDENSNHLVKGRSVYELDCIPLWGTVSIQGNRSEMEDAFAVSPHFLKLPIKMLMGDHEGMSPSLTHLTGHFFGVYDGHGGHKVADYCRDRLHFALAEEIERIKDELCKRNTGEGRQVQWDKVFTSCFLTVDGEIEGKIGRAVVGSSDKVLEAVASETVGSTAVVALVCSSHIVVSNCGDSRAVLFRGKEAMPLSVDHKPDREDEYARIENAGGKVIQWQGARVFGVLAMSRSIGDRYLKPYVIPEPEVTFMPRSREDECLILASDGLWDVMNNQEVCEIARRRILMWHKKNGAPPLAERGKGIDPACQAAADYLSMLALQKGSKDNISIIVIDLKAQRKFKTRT

[2] = biological target: T1, GAL4 activation domain fusion (ACT) to …; experiment: yeast two-hybrid, X-gal; lowest dichlobenil concentration giving signal
[3] = biological target: T1, GAL4 activation domain fusion (ACT) to …; experiment: yeast two-hybrid, X-gal; lowest fludioxonil concentration giving signal
[4] = biological target: T1, GAL4 activation domain fusion (ACT) to …; experiment: yeast two-hybrid, X-gal; lowest benoxacor concentration giving signal
Procedure: The set of 475 mutant plasmids were individually transformed into the Y190 yeast two hybrid reporter strain co-transformed with pACT-HAB1, as previously described (Park et al., 2009). The yeast strains generated were arrayed into 96-well plates yielding what we refer to as the “pocket library”. The pocket library strains were spotted onto agar plates containing selective synthetic dextrose (minus Leu & Trp) medium that was supplemented with a single test compound at 100 μM. The pocket library strains were separately tested for responsiveness to the following compounds: dichlobenil, benzothiadiazole, mandipropamid, fludioxonil, and benoxacor. After incubating test plates at 30° C. for two days, colonies were chloroform lysed and stained to reveal β-galactosidase expression levels, using previously described methods (Park et al., 2009). Mutants displaying responsiveness to the test compound, if present, were identified by virtue of X-gal staining and then subjected to subsequent optimization efforts. Using this approach we identified mutations that conferred detectable sensitivity to the compounds tested (see entries labeled “Pocket Library Screens” in Table 1).

[5] = biological target: T1, GAL4 activation domain fusion (ACT) to …; experiment: yeast two-hybrid, X-gal; lowest mandipropamid concentration giving signal

B1: PYR1^K59R,A89C (receptor, not shown: small tags and cut ends)
chain: MPSELTPEERSELKNSIAEFHTYQLDPGSCSSLHAQRIHAPPELVWSIVRRFDKPQTYRHFIKSCSVEQNFEMRVGCTRDVIVISGLPCNTSTERLDILDDERRVTGFSIIGGEHRLTNYKSVTTVHRFEKENRIWTVVLESYVVDMPEGNSEDDTRMFADTVVKLNLQKLATVAEAMARNSGDGSGSQVT
notes: pBD-PYR1 fusion in yeast
Threshold [1]: 100 µM

B2: PYR1^K59R,A89C,L117C (receptor)
chain: B1 chain with L117C
notes: pBD-PYR1 fusion in yeast
Threshold [1]: 25 µM

B3: PYR1^K59R,A160C (receptor, not shown: small tags and cut ends)
chain: B1 chain with C89A, A160C
notes: pBD-PYR1 fusion in yeast
Threshold [2]: 100 µM
Threshold [3]: 100 µM

B4: PYR1^K59R,A89I,S92W (receptor)
chain: B1 chain with C89I, S92W
notes: pBD-PYR1 fusion in yeast
Threshold [4]: 50 µM

B6: PYR1^K59R,L117C (receptor, not shown: small tags and cut ends)
chain: B1 chain with C89A, L117C
notes: pBD-PYR1 fusion in yeast
Threshold [1]: 100 µM

B7: PYR1^K59R,A160G (receptor, not shown: small tags and cut ends)
chain: B1 chain with C89A, A160G
notes: pBD-PYR1 fusion in yeast
Threshold [1]: 100 µM

B8: PYR1^K59R,A89I,S92I (receptor)
chain: B1 chain with C89I, S92I
notes: pBD-PYR1 fusion in yeast
Threshold [4]: 50 µM

B9: PYR1^K59R,A160G,L117C (receptor)
chain: B1 chain with C89A, L117C, A160G
notes: pBD-PYR1 fusion in yeast
Threshold [1]: 25 µM

B10: PYR1^K59R,A89C,A160G (receptor, not shown: small tags and cut ends)
chain: B1 chain with A160G
notes: pBD-PYR1 fusion in yeast
Threshold [1]: 5 µM

B11: PYR1^K59R,A160G,V164K (receptor)
chain: B1 chain with C89A, A160G, V164K
notes: pBD-PYR1 fusion in yeast
Threshold [1]: 5 µM

B13: PYR1^K59R,F159L (receptor, not shown: small tags and cut ends)
chain: B1 chain with C89A, F159L
notes: pBD-PYR1 fusion in yeast
Threshold [5]: 100 µM
Threshold [1]: 100 µM
Threshold [2]: 100 µM

B15: PYR1^K59R,E141Y,A160G (receptor)
chain: B1 chain with C89A, E141Y, A160G
notes: pBD-PYR1 fusion in yeast
Threshold [1]: 5 µM

B16: PYR1^K59R,A89C,E141Y (receptor, not shown: small tags and cut ends)
chain: B1 chain with E141Y
notes: pBD-PYR1 fusion in yeast
Threshold [1]: 0.2 µM

B18: PYR1^K59R,A89W (receptor)
chain: B1 chain with C89W
notes: pBD-PYR1 fusion in yeast
Threshold [5]: 100 µM
Threshold [4]: 100 µM

B19: PYR1^K59R,F108L (receptor)
chain: B1 chain with C89A, F108L
notes: pBD-PYR1 fusion in yeast
Threshold [5]: 100 µM
Threshold [3]: 100 µM

B20: PYR1^K59R,L87F (receptor)
chain: B1 chain with L87F, C89A
notes: pBD-PYR1 fusion in yeast
Threshold [4]: 100 µM
Threshold [3]: 100 µM

B23: PYR1^K59R,E141Y (receptor)
chain: B1 chain with C89A, E141Y
notes: pBD-PYR1 fusion in yeast
Threshold [1]: 100 µM
Threshold [2]: 100 µM
Threshold [3]: 100 µM

B25: PYR1^K59R,A89I (receptor)
chain: B1 chain with C89I
notes: pBD-PYR1 fusion in yeast
Threshold [4]: 100 µM

B26: PYR1^K59R,F159I (receptor, not shown: small tags and cut ends)
chain: B1 chain with C89A, F159I
notes: pBD-PYR1 fusion in yeast; also called K59R F1591
Threshold [5]: 100 µM
Threshold [1]: 100 µM
Threshold [2]: 100 µM

B27: PYR1^K59R,F159M (receptor, not shown: small tags and cut ends)
chain: B1 chain with C89A, F159M
notes: pBD-PYR1 fusion in yeast
Threshold [5]: 100 µM
Threshold [1]: 100 µM

B28: PYR1^K59R,A89C,V164K (receptor, not shown: small tags and cut ends)
chain: B1 chain with V164K
notes: pBD-PYR1 fusion in yeast
Threshold [1]: 0.2 µM

B30: PYR1^K59R,E94D (receptor, not shown: small tags and cut ends)
chain: B1 chain with C89A, E94D
notes: pBD-PYR1 fusion in yeast
Threshold [2]: 100 µM
Threshold [3]: 100 µM

B31: PYR1^K59R,E141K (receptor, not shown: small tags and cut ends)
chain: B1 chain with C89A, E141K
notes: pBD-PYR1 fusion in yeast
Threshold [1]: 100 µM

B38: PYR1^K59R,F159T (receptor, not shown: small tags and cut ends)
chain: B1 chain with C89A, F159T
notes: pBD-PYR1 fusion in yeast
Threshold [5]: 100 µM
Threshold [1]: 100 µM
Threshold [3]: 100 µM

B42: PYR1^K59R,F159C (receptor, not shown: small tags and cut ends)
chain: B1 chain with C89A, F159C
notes: pBD-PYR1 fusion in yeast
Threshold [5]: 100 µM
Threshold [1]: 100 µM

B43: PYR1^K59R,F159A (receptor, not shown: small tags and cut ends)
chain: B1 chain with C89A, F159A
notes: pBD-PYR1 fusion in yeast
Threshold [5]: 100 µM
Threshold [1]: 100 µM
Threshold [3]: 100 µM

B44: PYR1^K59R,L87P (receptor, not shown: small tags and cut ends)
chain: B1 chain with L87P, C89A
notes: pBD-PYR1 fusion in yeast
Threshold [2]: 100 µM
Threshold [3]: 100 µM

Results, then the binder that gave them:

Threshold [1]: 100 µM
B5: PYR1^K59R,L117C,V164K (receptor)
chain: B1 chain with C89A, L117C, V164K
notes: pBD-PYR1 fusion in yeast

Threshold [2]: 100 µM
Threshold [3]: 100 µM
B12: PYR1^K59R,N167C (receptor, not shown: small tags and cut ends)
chain: B1 chain with C89A, N167C
notes: pBD-PYR1 fusion in yeast

Threshold [1]: 100 µM
Threshold [2]: 100 µM
B14: PYR1^K59R,T162K (receptor, not shown: small tags and cut ends)
chain: B1 chain with C89A, T162K
notes: pBD-PYR1 fusion in yeast

Threshold [3]: 100 µM
B17: PYR1^K59R,Y120F (receptor, not shown: small tags and cut ends)
chain: B1 chain with C89A, Y120F
notes: pBD-PYR1 fusion in yeast

Threshold [4]: 50 µM
B21: PYR1^K59R,S92I (receptor)
chain: B1 chain with C89A, S92I
notes: pBD-PYR1 fusion in yeast

Threshold [1]: 100 µM
Threshold [2]: 100 µM
Threshold [3]: 100 µM
B22: PYR1^K59R,M158I (receptor, not shown: small tags and cut ends)
chain: B1 chain with C89A, M158I
notes: pBD-PYR1 fusion in yeast

Threshold [3]: 10 µM
B24: PYR1^K59R,Y120A,E141Y (receptor, not shown: small tags and cut ends)
chain: B1 chain with C89A, Y120A, E141Y
notes: pBD-PYR1 fusion in yeast

Threshold [1]: 100 µM
Threshold [3]: 100 µM
B29: PYR1^K59R,V81I (receptor, not shown: small tags and cut ends)
chain: B1 chain with V81I, C89A
notes: pBD-PYR1 fusion in yeast

Threshold [1]: 100 µM
Threshold [2]: 100 µM
Threshold [3]: 100 µM
B32: PYR1^K59R,V83L (receptor, not shown: small tags and cut ends)
chain: B1 chain with V83L, C89A
notes: pBD-PYR1 fusion in yeast

Threshold [3]: 10 µM
B33: PYR1^K59R,Y120A,N167C (receptor, not shown: small tags and cut ends)
chain: B1 chain with C89A, Y120A, N167C
notes: pBD-PYR1 fusion in yeast

Threshold [3]: 100 µM
B34: PYR1^K59R,Y120M (receptor, not shown: small tags and cut ends)
chain: B1 chain with C89A, Y120M
notes: pBD-PYR1 fusion in yeast

Threshold [1]: 100 µM
Threshold [2]: 100 µM
B35: PYR1^K59R,V164Y (receptor, not shown: small tags and cut ends)
chain: B1 chain with C89A, V164Y
notes: pBD-PYR1 fusion in yeast

Threshold [4]: 50 µM
B36: PYR1^K59R,S92W (receptor)
chain: B1 chain with C89A, S92W
notes: pBD-PYR1 fusion in yeast

Threshold [3]: 100 µM
B37: PYR1^K59R,Y120G (receptor, not shown: small tags and cut ends)
chain: B1 chain with C89A, Y120G
notes: pBD-PYR1 fusion in yeast

Threshold [1]: 100 µM
Threshold [2]: 100 µM
Threshold [3]: 100 µM
B39: PYR1^K59R,V164K (receptor, not shown: small tags and cut ends)
chain: B1 chain with C89A, V164K
notes: pBD-PYR1 fusion in yeast

Threshold [1]: 100 µM
Threshold [2]: 100 µM
Threshold [4]: 100 µM
Threshold [3]: 100 µM
B40: PYR1^K59R,M158C (receptor, not shown: small tags and cut ends)
chain: B1 chain with C89A, M158C
notes: pBD-PYR1 fusion in yeast

Threshold [1]: 100 µM
Threshold [2]: 100 µM
B41: PYR1^K59R,T162Y (receptor, not shown: small tags and cut ends)
chain: B1 chain with C89A, T162Y
notes: pBD-PYR1 fusion in yeast
